Starred links: 1 amine or outer side, 2 acyl side, 3 side chain; linkers in the order of their positions; H or OH if unused. Positions of bridges follow the written chain, without caps; N, C: chain ends. No end group written: not given here. Suc = O=C(CCC(=O)[*:2])[*:1]

Results on 6 molecules are retold here after publication PMC12714728 (npj Viruses, 2025).

The target of experiment [1] is T1, hemagglutinin (HA) ectodomain of A/New Caledonia/20/1999 (H1N1) (influenza A virus A/New …, biotin on the BirA site). Kind of experiment: AlphaScreen or HTRF. Conditions: both partners purified.
The target of experiment [2] is T1, hemagglutinin (HA) ectodomain of A/New …. Kind of experiment: cell-based or functional assay.

B1: cyclic peptide CP8 (peptide)
peptide: CLYRDPLGVAGGMGC
modifications: not fully specified (bridges); cysteine pairing not given here
notes: source: synthetic peptide (manual solid phase Fmoc chemistry, iodine oxidation, RP-HPLC)
Turning to B1, the midpoint of inhibition in experiment [1], the IC50, lay at 0.16 µM. Also, the “virus neutralization assay (VNA) EC50, H1/NCa virus” value (“virus neutralization assay” for short) in experiment [2] was 0.28 µM.

Turning to CYEDPLGVAGGMC (not fully specified; cysteine pairing not given here) [cyclic peptide CP12], in experiment [1], the IC50 (in general, the concentration that gives 50% inhibition) turned out to be 4.95 µM. In experiment [2], the “virus neutralization assay” value came to 58.3 µM.

B2: linear peptide LP1 (peptide)
peptide: Suc-VSLYRDPLGVAGGMGVY-NH2
notes: source: synthetic peptide (manual solid phase Fmoc chemistry, RP-HPLC)
The molecule B2 registered an IC50 in experiment [1] of 22.9 µM.

B3: cyclic peptide CP14 (peptide)
peptide: LYEDPLGVAGGMG
modifications: head-to-tail lactam cyclized (no template)
notes: as for B2
For the molecule B3, in experiment [1], the midpoint of inhibition, the IC50, lay at 1.24 µM. Further, the “virus neutralization assay” value in experiment [2] amounted to 45.3 µM.

Consider CYRDPLGVAGEMC (not fully specified; cysteine pairing not given here) [cyclic peptide CP13], for which, in experiment [1], it took 12.8 µM to reach half-maximal inhibition (IC50).

B4: cyclic peptide CP11 (peptide)
peptide: CYRDPLGVAGGMC
modifications: disulfide 1-13
notes: as for B1
B4 came in with an IC50 in experiment [1] of 4.99 µM.
